Source: article PMC12684077 (Cell, 2025)

B1: RSV-2245 Fab (Fab, V domains shown)
VH: QVQLVQSGAEVKKPGASVKVSCKASGYSFSSFGVSWVRQAPGQGLEWLGWISAYNGNTDYAQKVQGRLTMTTDTSTNTAYMELRNLRSDDTAVYYCARDPPASAAAMFDYWGQGTLVTVSS
VL: not shown
B2: RSV-3301 Fab (Fab, V domains shown)
VH: QVQLVESGPTLVKPTQTLTLTCSFSGFSLSTRGVGVGWVRQPPGKALECLGFTYWDGDEYYSPSLRNRVTISKDTSKNQVVLTLTNMDPVDTATYFCVHSDLYDRGGYYLYYFDYWGQGTLVTVSS
VL: DIRVTQSPSSLSASVGDRVTITCRASQTIASYVNWYQQKPGRAPELLIYAASILQSGVPSRFSGRGSGTDFTLTINGLQPEDFATYYCQQSYSSPWTFGQGTKVEIK

Target: RSV prefusion F (PR-DM) (Human respiratory syncytial virus A, …, stabilised)
Test: cryo-EM structure

Row | Binder | stoichiometry N
1 | B1 | 3 copies of the Fab per F trimer
2 | B2 | 3 copies of the Fab per F trimer
